One assay has as its target ubiquitin (Homo sapiens (assumed; species not …, UniProt P0CG48). Description: ELISA.
Assay [1] deals with His-p67C (p67 residues 572-651) (Theileria parva, strain not told, UniProt Q4MZ78). Description: ELISA. A general note: An ELISA detects its analyte on a solid surface through an enzyme-linked reagent.
In the next assay the target is bovine serum albumin (Bos taurus, UniProt P02769). Description: ELISA.
Assay [2] concerns the target T1, p67C^1 (p67 residues 572-612) (Theileria parva, UniProt Q4MZ78).
T1 chain: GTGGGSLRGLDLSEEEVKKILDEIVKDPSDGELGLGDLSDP
Description: ELISA.

Assay [3] deals with full-length p67 of Theileria parva with a C-terminal His-tag (Theileria parva, strain not told, UniProt Q4MZ78). Description: BLI. (BLI is a label-free optical method that tracks binding on a fibre tip over time.)
Another assay concerns the target the fusion tag (GST) (Schistosoma japonicum (assumed, usual …, UniProt P08515 = GST)). Description: ELISA.

bovine serum albumin, sequence (P02769 25-607): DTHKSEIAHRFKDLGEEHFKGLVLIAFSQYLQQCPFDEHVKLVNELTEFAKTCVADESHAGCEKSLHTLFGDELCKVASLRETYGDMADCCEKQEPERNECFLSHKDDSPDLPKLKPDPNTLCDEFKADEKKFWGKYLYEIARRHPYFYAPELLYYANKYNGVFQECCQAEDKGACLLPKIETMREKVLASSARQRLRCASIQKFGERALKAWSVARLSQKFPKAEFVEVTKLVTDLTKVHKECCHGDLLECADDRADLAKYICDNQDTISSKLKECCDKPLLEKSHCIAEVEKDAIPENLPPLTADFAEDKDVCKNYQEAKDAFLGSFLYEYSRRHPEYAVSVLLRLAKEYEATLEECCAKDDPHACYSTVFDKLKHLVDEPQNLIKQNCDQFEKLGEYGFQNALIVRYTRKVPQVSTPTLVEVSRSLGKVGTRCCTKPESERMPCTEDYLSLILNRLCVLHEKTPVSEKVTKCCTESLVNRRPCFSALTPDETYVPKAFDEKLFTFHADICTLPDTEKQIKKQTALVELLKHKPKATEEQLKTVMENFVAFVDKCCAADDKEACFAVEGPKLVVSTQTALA

B1: Fab B11 (Fab, V domains shown)
VH: EVQLVESGGGLVQPGGSLRLSCAASGFNISSSSIHWVRQAPGKGLEWVASISPYYSSTSYADSVKGRFTISADTSKNTAYLQMNSLRAEDTAVYYCARGPGYAMDYWGQGTLVTVSS
VL: DIQMTQSPSSLSASVGDRVTITCRASQSVSSAVAWYQQKPGKAPKLLIYSASSLYSGVPSRFSGSRSGTDFTLTISSLQPEDFATYYCQQYYYAPITFGQGTKVEIK
With B1, the binding result in the assay with ubiquitin was “no binding”; with bovine serum albumin it was “no binding”; in assay [2] it was “binds”. In assay [1], this molecule gave an EC50 of 25 nM. The same molecule displayed a Kd in assay [3] of 79 nM.

B2: Fab B11 displayed on phage (Fab, V domains shown)
VH: EVQLVESGGGLVQPGGSLRLSCAASGFNISSSSIHWVRQAPGKGLEWVASISPYYSSTSYADSVKGRFTISADTSKNTAYLQMNSLRAEDTAVYYCARGPGYAMDYWGQGTLVTVSS
VL: DIQMTQSPSSLSASVGDRVTITCRASQSVSSAVAWYQQKPGKAPKLLIYSASSLYSGVPSRFSGSRSGTDFTLTISSLQPEDFATYYCQQYYYAPITFGQGTKVEIK
Regarding B2, in the assay with the fusion tag (GST), the binding result was “no binding”.

In general, EC50 refers to the midpoint of the concentration-response curve. A higher EC50 goes with a need for much substance. Broadly, the Kd is the equilibrium constant for the complex coming apart.

Values taken from paper PMC12086512 (Protein Science : A Publication of the Protein Society, 2025).
